Residue numbers refer to the chain shown, from its start.
B1: chimeric 1E2 Fab (llama VL and VH of 1E2 fused to human C-lambda and CH1) (Fab, V domains shown)
VH: EVQLVESGGGLVQPGGSLRLSCTASGFTFSNYWMYWVRQAPGKGLEWVSAINAAGSTYYADSVKGRFTISRDNAKNTLYLQMNSLQSEDTALYYCANLPRWGQGTQVTVSS
VL: QTVVTQEPSLSVSPGGTVTLTCGLSSGSVTSGNYPGWYQQKPGQAPRTLIYNTNSRYSGVPNRFSGSISGNKAALTITGAQPEDEADYYCAVYIGSSSYPVVFGGGTHLTVLG
notes: Purified from E. coli (pCB5, no gene3); Myc and hexahistidine tags on the Fd; also called wt 1E2
B2: Fab 1E2 wt VL / safe VH (with human CL and human CH1) (Fab, V domains shown)
VH: B1 VH with T23A, A74S, L92V
VL: B1 VL
notes: Purified from E. coli; also called wt/safe; wt VA/safe VH
B3: Fab 1E2 wt VL / hum VH (with human CL and human CH1) (Fab, V domains shown)
VH: B1 VH with T23A, A74S, Q86R, S87A, L92V, Q106L
VL: B1 VL
notes: Purified from E. coli; also called wt/hum; wt VA/hum VH
B4: wt 1E2 (llama VL and VH fused to human C-lambda and CH1), Fab displayed on phage (Fab, V domains shown)
VH: B1 VH
VL: B1 VL
notes: Tested as a gene3-Fab fusion on phage
B5: hum 1E2 (fully humanized VL and VH fused to human C-lambda and CH1), Fab displayed on phage (Fab, V domains shown)
VH: B1 VH with T23A, A74S, Q86R, S87A, L92V, Q106L
VL: B1 VL with L10F, K41T, Y57S, N62D, S69L, P82A, E83D, A86S, H108K
notes: as for B4
B6: safe variant 1E2 (partially humanized, fused to human C-lambda and CH1), Fab displayed on phage (Fab, V domains shown)
VH: B1 VH with T23A, A74S, L92V
VL: B1 VL with L10F, Y57S, N62D, S69L, E83D, A86S
notes: also called safe 1E2
B7: safe variant 1F2 (partially humanized, fused to human C-lambda and CH1), Fab displayed on phage (Fab, V domains shown)
VH: EVQLLESGGGLVQPGGSLRLSCAASGFTFSTYAMSWVRQAPGKGPEWVSGINTGGGSTGYADSVKGRFTISRDNSKNTLYLQMNSLRPEDTAVYYCAKDWMATTPWGQGTQVTVSS
VL: QTVVTQEPSFSVSPGGTVTLTCGLSSGSVTTNNYPGWFQQTPGQAPRTLIYNTNNRHSGVPSRFSGSILGNKAALTITGAQADDESDYYCALYMSSGSNNAVFGGGTKLTVLG
notes: also called safe 1F2
B8: wt 1F2 (llama VL and VH fused to human C-lambda and CH1), Fab displayed on phage (Fab, V domains shown)
VH: B7 VH with L5V, S75A, R87K
VL: B7 VL with T2A, F10L, L69S, A82P, D83E, S86A, K108H
notes: Tested as a gene3-Fab fusion on phage (crude phage extract)
B9: hum 1F2 (fully humanized VL and VH fused to human C-lambda and CH1), Fab displayed on phage (Fab, V domains shown)
VH: B7 VH with P45L, P88A, Q111L
VL: B7 VL with F38Y, H57S, S62D
notes: as for B4
B10: wild type llama 1E2 Fab (Fab, V domains shown)
VH: B1 VH
VL: B1 VL
notes: Produced from phagemid pCB3; Hexahistidine and myc tags at the C-terminus of the Fd; Captured by anti-myc; also called Fab 1E2
B11: Fab 1F2 (llama Fab selected against IL-1Beta) (Fab, V domains shown)
VH: B7 VH with L5V, S75A, R87K
VL: B7 VL with T2A, F10L, L69S, A82P, D83E, S86A, K108H
notes: Original clone from the llama Fab phage library

Biological target: T1, biotinylated human IL-1Beta (human, UniProt P01584 117-269, biotinylated (positions not stated))
T1 construct: In the assays it was biotinylated; also called biot-IL-1Beta
Assay: ELISA: Fab captured on anti-myc plate, biotinylated human IL-1Beta, streptavidin-HRP
Method: For this the Fabs were captured on an anti-myc coated Maxisorp plate. Biotinylated human IL-1Beta was added and bound cytokine was detected using HRP-conjugated streptavidin.
The purified llama and chimeric 1E2 Fabs described above were captured on anti-myc coated maxisorp plates. After incubation with biotinylated human IL-1Beta and extensive washing, the biotinylated IL-1Beta bound to the Fab was detected using HRP-conjugated streptavidin.

Q: Does B1 bind?
A: Result: binds

Q: Does B2 bind?
A: Result: binds

Q: Does B3 bind?
A: Result: binds

Biological target: T2, neutravidin (UniProt P02701 25-152)
T2 construct: Capture reagent of the phage ELISA; Wells without biotinylated IL-1Beta served as the negative control
T2 sequence (P02701 25-152): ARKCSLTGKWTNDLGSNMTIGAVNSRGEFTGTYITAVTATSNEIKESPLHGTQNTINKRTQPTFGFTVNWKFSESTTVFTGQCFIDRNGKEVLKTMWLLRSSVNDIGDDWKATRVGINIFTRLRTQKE
Assay: phage ELISA on neutravidin coated wells, anti-M13-HRP detection
Method: (§1) Four clones for each Fab were tested to overcome clonal variation (due to bacterial growth, phage production efficiency and toxicity etc. . . . ). Phage ELISA was performed by capturing of biotinylated IL-1Beta on neutravidin coated Maxisorp plate and subsequent incubation of crude phage extract (i.e. bacterial medium). After extensive washing, bound phages were detected with an anti-M13-HRP monoclonal antibody.

Q: Does B4 bind?
A: Result: no binding

Q: Does B5 bind?
A: Result: no binding

Q: Does B6 bind?
A: Result: no binding

Q: Does B7 bind?
A: Result: no binding

Q: Does B8 bind?
A: Result: no binding

Q: Does B9 bind?
A: Result: no binding

Biological target: T1, biotinylated human IL-1Beta
Assay: phage display selection and phage ELISA on biotinylated IL-1Beta

Q: Does B10 bind?
A: Result: binds

Q: Does B11 bind?
A: Result: binds

Biological target: T1, biotinylated human IL-1Beta
Assay: phage ELISA: biotinylated IL-1Beta captured on neutravidin, crude phage, anti-M13-HRP
Method: as §1

Q: Does B9 bind?
A: Result: binds
